One experiment addresses HLA-C*04:01. In words: IEDB peptide-MHC binding, purified MHC/direct/fluorescence; filed as Kd, often an IC50 or EC50 that approximates it; ≥ and ≤ were set here for values at or beyond the usual limits of such assays.
The next experiment addresses HLA-A*01:01. Described as above.
Experiment [1] addresses HLA-A*02:01. Described as above.
The next experiment has as its target HLA-A*03:01. Described as above.
Another experiment deals with HLA-A*11:01. Described as above.
For the next experiment, the target named is HLA-A*26:01. Described as above. The conditions noted are these: source organism: Influenza A virus(A/swine/Shandong/fNY/2003(H9N2)).
Another experiment concerns the target HLA-A*31:01. The description is as above.
Another experiment has as its target HLA-A*69:01. The description is as above.
Another experiment deals with HLA-B*07:02. The experiment is described as above.
Experiment [2] has as its target HLA-B*08:01. The experiment is described as above. The conditions noted are these: source organism: Influenza A virus(A/swine/Shandong/fNY/2003(H9N2)).
The target in another experiment is HLA-B*15:01. The description is as above.
Experiment [3] deals with HLA-B*15:17. The experiment is described as above.
The target in a further experiment is HLA-B*18:01. Described as above.
In a further experiment the target is HLA-B*27:05. Described as above.
For a further experiment, the target named is HLA-B*40:01. The experiment is described as above. The note with it: source organism: Influenza A virus (A/SW/MN/12883/00(H1N2)).
The target of the next experiment is HLA-B*46:01. The experiment is described as above.
Experiment [4] addresses HLA-B*48:01. The description is as above.
The target in another experiment is HLA-B*57:01. The experiment is described as above.
For another experiment, the target named is HLA-B*58:01. The description is as above.
The next experiment deals with HLA-B*15:09. In words: IEDB peptide-MHC binding, purified MHC/competitive/fluorescence; filed as Kd, often an IC50 or EC50 that approximates it; ≥ and ≤ were set here for values at or beyond the usual limits of such assays.
A further experiment deals with HLA-B*51:01. The experiment is described as above. The note with it: source organism: Influenza A virus H3N2.
The target in a further experiment is HLA-C*08:02. Kind of experiment: IEDB peptide-MHC binding, purified MHC/direct/fluorescence; filed as Kd, often an IC50 or EC50 that approximates it; ≥ and ≤ were set here for values at or beyond the usual limits of such assays. The conditions noted are these: source organism: human gammaherpesvirus 4.
Experiment [5] concerns the target HLA-A*02:01. Kind of experiment: IEDB peptide-MHC binding, purified MHC/competitive/fluorescence; filed as Kd, often an IC50 or EC50 that approximates it; ≥ and ≤ were set here for values at or beyond the usual limits of such assays. The conditions noted are these: source organism: Escherichia coli 536.
In the next experiment the target is HLA-A*26:02. The experiment is described as above. The note with it: source organism: Escherichia coli 536.
The target of experiment [6] is HLA-A*68:02. Described as above. The conditions noted are these: source organism: Escherichia coli 536.
Experiment [7] deals with HLA-B*15:17. The description is as above. The conditions noted are these: source organism: Escherichia coli 536.
For another experiment, the target named is HLA-B*39:01. Described as above.
The next experiment concerns the target HLA-A*23:01. Kind of experiment: IEDB peptide-MHC binding, purified MHC/direct/fluorescence; filed as Kd, often an IC50 or EC50 that approximates it; ≥ and ≤ were set here for values at or beyond the usual limits of such assays. The note with it: source organism: Vibrio vulnificus YJ016.
Another experiment has as its target HLA-A*24:02. Described as above. The note with it: source organism: Vibrio vulnificus YJ016.
For a further experiment, the target named is HLA-A*24:03. Described as above. The conditions noted are these: source organism: Vibrio vulnificus YJ016.
The next experiment deals with HLA-A*26:03. The experiment is described as above. The note with it: source organism: Vibrio vulnificus YJ016.
The target in experiment [8] is HLA-A*68:02. The description is as above. The note with it: source organism: Vibrio vulnificus YJ016.
For the next experiment, the target named is HLA-B*08:02. Described as above. The note with it: source organism: Vibrio vulnificus YJ016.
A further experiment deals with HLA-A*02:06. In words: IEDB peptide-MHC binding, purified MHC/competitive/fluorescence; filed as Kd, often an IC50 or EC50 that approximates it; ≥ and ≤ were set here for values at or beyond the usual limits of such assays. The note with it: source organism: Vibrio vulnificus YJ016.
Experiment [9] addresses HLA-B*08:01. Described as above. The note with it: source organism: Vibrio vulnificus YJ016.
For experiment [10], the target named is HLA-B*48:01. Described as above. The conditions noted are these: source organism: Cryptosporidium parvum Iowa II.
Setting [11] is: source organism: Influenza A virus (A/SW/MN/12883/00(H1N2)).
Setting [12] is: source organism: Escherichia coli O157:H7.
The mark [13] stands for this setting: source organism: Escherichia coli 536.
The mark [14] stands for this setting: source organism: Vibrio vulnificus YJ016.

For orientation: pKd means the negative decadic logarithm of the Kd, by convention in mol/L. High values mean a small Kd, low ones a large Kd.

pKd: −log10 of the molar value.

The sequence WYDWQQVPF gave a pKd with HLA-C*04:01 (source organism: West Nile virus) of 8.15.
In the case of FPNEVGARI, the pKd with HLA-A*01:01 (setting [11]), with HLA-A*02:01 [1] (setting [11]), in the experiment with HLA-A*03:01 (setting [11]), with HLA-A*11:01 (setting [11]), with HLA-A*26:01 and in the experiment with HLA-A*31:01 (setting [11]) was no more than 4.70 throughout. The pKd with HLA-A*69:01 (setting [11]) is 8.42; with HLA-B*07:02 (setting [11]), 7.18; in the experiment with HLA-B*08:01 [2], 5.52; with HLA-B*15:01 (setting [11]), no more than 4.70; in the experiment with HLA-B*15:17 [3] (setting [11]), no more than 4.70; in the experiment with HLA-B*18:01 (setting [11]), no more than 4.70. Moreover, the pKd in the experiment with HLA-B*27:05 (setting [11]), with HLA-B*40:01, with HLA-B*46:01 (setting [11]), with HLA-B*48:01 [4] (setting [11]), with HLA-B*57:01 (setting [11]) and in the experiment with HLA-B*58:01 (setting [11]) was no more than 4.70 in each case. In addition, the results for the pKd in the experiment with HLA-B*15:09 (source organism: Influenza A virus H3N2) and with HLA-B*51:01 were 5.95 and 6.45, respectively.
As to RSDEYVAYY, the pKd in the experiment with HLA-C*04:01 (source organism: human gammaherpesvirus 4) was no more than 4.70; with HLA-C*08:02, 6.32.
As to VMAASGAPF, the pKd is no more than 4.70 with HLA-A*01:01 (setting [12]); no more than 4.70 with HLA-A*11:01 (setting [12]); no more than 4.70 with HLA-A*31:01 (setting [12]); no more than 4.70 with HLA-A*69:01 (setting [12]); 6.83 with HLA-B*07:02 (setting [12]); 7.72 in the experiment with HLA-B*15:01 (setting [12]). The pKd with HLA-B*27:05 (setting [12]) is no more than 4.70; with HLA-B*46:01 (setting [12]) it was 5.87; in the experiment with HLA-B*48:01 [4] (setting [12]), no more than 4.70; in the experiment with HLA-B*57:01 (setting [12]), no more than 4.70; with HLA-A*02:01 [5] it was no more than 4.70; with HLA-A*26:02 it was no more than 4.70. Also, the pKd was no more than 4.70 in the experiment with HLA-A*68:02 [6], no more than 4.70 in the experiment with HLA-B*15:09 (setting [13]), 6.67 with HLA-B*15:17 [7] and no more than 4.70 in the experiment with HLA-B*39:01 (setting [13]).
As for WHQARFEEL, the pKd in the experiment with HLA-A*01:01 (setting [14]) was no more than 4.70; with HLA-A*02:01 [1] (setting [14]) it was no more than 4.70; in the experiment with HLA-A*03:01 (setting [14]), no more than 4.70; with HLA-A*11:01 (setting [14]), no more than 4.70; in the experiment with HLA-A*23:01 it was 5.77; with HLA-A*24:02 it was 5.06. The pKd with HLA-A*24:03 is 6.84; with HLA-A*26:03, no more than 4.70; in the experiment with HLA-A*31:01 (setting [14]), no more than 4.70; with HLA-A*68:02 [8], no more than 4.70; in the experiment with HLA-A*69:01 (setting [14]) it was no more than 4.70; with HLA-B*07:02 (setting [14]) it was no more than 4.70. The pKd in the experiment with HLA-B*08:02, in the experiment with HLA-B*15:01 (setting [14]), with HLA-B*15:17 [3] (setting [14]), with HLA-B*18:01 (setting [14]), with HLA-B*27:05 (setting [14]) and with HLA-B*57:01 (setting [14]) was no more than 4.70 throughout. In addition, the pKd was no more than 4.70 with HLA-B*58:01 (setting [14]); no more than 4.70 in the experiment with HLA-A*02:06; no more than 4.70 with HLA-B*08:01 [9]; 7.64 with HLA-B*15:09 (setting [14]); 7.75 in the experiment with HLA-B*39:01 (setting [14]).
With IQNDLITEF, the pKd with HLA-C*04:01 (source organism: Vaccinia virus Copenhagen) is no more than 4.70.
In turn, IQNEIMKPL showed a negative-log Kd (pKd) in the experiment with HLA-B*48:01 [10] of 6.30.
